Patent US20260347504 (published 2026)

Assays:
human TLR4 ECD = human TLR4 ECD (human, UniProt O00206); test: SPR, TLR4 immobilized
human RAGE ECD = human RAGE ECD (human, UniProt Q15109); test: SPR, RAGE immobilized
Chain of human RAGE ECD (Q15109 1-344): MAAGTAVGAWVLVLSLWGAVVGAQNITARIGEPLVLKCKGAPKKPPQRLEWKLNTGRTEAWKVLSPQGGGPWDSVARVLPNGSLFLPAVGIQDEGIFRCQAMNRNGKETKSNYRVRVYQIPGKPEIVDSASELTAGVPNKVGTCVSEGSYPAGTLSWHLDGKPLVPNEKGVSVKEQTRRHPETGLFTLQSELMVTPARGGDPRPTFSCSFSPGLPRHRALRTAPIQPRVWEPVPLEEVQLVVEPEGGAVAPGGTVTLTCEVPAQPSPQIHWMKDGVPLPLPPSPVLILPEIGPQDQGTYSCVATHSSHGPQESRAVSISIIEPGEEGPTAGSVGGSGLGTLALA

Chain of human TLR4 ECD (O00206 1-631): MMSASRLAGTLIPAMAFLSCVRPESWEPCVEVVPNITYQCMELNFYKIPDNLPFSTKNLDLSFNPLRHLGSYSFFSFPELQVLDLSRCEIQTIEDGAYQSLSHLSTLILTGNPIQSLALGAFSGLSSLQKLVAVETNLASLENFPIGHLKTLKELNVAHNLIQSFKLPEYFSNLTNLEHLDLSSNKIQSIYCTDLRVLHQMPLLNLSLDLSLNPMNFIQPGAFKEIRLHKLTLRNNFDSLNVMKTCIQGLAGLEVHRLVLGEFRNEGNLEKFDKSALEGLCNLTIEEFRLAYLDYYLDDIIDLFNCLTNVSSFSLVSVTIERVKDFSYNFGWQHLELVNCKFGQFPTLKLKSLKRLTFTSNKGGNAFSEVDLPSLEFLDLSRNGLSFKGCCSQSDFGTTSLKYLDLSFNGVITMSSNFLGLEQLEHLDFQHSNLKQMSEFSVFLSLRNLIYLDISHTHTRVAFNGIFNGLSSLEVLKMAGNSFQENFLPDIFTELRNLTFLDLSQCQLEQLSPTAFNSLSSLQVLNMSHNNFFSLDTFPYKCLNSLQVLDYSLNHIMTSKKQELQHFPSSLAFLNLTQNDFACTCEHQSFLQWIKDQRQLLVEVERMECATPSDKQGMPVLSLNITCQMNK

B1: human pCTS-L (protein)
chain: ATLTFDHSLEAQWTKWKAMHNRLYGMNEEGWRRAVWEKNMKMIELHNQEYREGKHSFTMAMNAFGDMTSEEFRQVMNGFQNRKPRKGKVFQEPLFYEAPRSVDWREKGYVTPVKNQGQCGSCWAFSATGALEGQMFRKTGRLISLSEQNLVDCSGPQGNEGCNGGLMDYAFQYVQDNGGLDSEESYPYEATEESCKYNPKYSVANDTGFVDIPKQEKALMKAVATVGPISVAIDAGHESFLFYKEGIYFEPDCSSEDMDHGVLVVGYGFESTESDNNKYWLVKNSWGEEWGMGGYVKMAKDRRNHCGIASAASYPTV
Kd (human TLR4 ECD): 64.4 nM | Kd (human RAGE ECD): 3 nM
